Laboratory results reported in the supplement of paper PMC10567573.

B1: PKD2L1 (parent)
chain: YSGGGYYLDLPGSRQGSAEALRAL
B2: SLC2A12 (parent)
chain: CLLGLGSLVLILSLSYTVLIVGRI
B3: KIAA1161 (parent)
chain: FMPAMQFSIPPWRYDAEVVAIAQK

Variants of: B1
Assay: protein stability index of a GFP-peptide fusion (GPS, HEK-293T) (PSI 1-6); higher = more stable
Settings: c terminus: a fixed tail appended
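Further: lentivirally expressed fusions sorted by FACS into six bins by GFP to DsRed ratio, PSI derived from sequencing read proportions per bin multiplied by bin number.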

Protein stability index of substitutions, site by site:
E19: N 1.77 | P 2.03 | Q 1.63 | R 2.16 | S 1.49 | T 1.77 | V 1.89 | W 1.74 | Y 2.23
A20: C 3.77 | D 1.86 | F 2.64 | G 1.66 | H 1.25 | I 1.37 | K 1.74 | L 1.72 | M 1.81 | N 2.02 | P 2.62 | Q 1.66 | R 1.29 | S 2.2 | T 2.65 | V 1.6 | W 2.36 | Y 1.76
L21: A 1.46 | C 1.41 | D 1.98 | E 1.36 | F 2.09 | G 1.89 | H 2.05 | I 1.75 | K 2.26 | M 3.01 | N 1.99 | P 2.23 | Q 1.87 | R 1.25 | S 2.27 | T 1.86 | V 1.8 | W 1.29 | Y 1.91
R22: A 2.13 | C 2.11 | D 1.26 | E 1.86 | F 2.84 | G 1.69 | H 1.92 | I 3.18 | K 2.08 | L 1.36 | M 2.61 | N 1.65 | P 1.78 | Q 1.5 | S 2.92 | T 1.82 | V 2.03 | W 3.79 | Y 2.02
A23: C 1.59 | D 2.21 | E 1.95 | F 2.52 | G 1.44 | H 2.09 | I 1.66 | K 1.72 | L 1.73 | M 2.03 | N 2.05 | P 2.19 | Q 2.53 | R 2.26 | S 1.86 | T 2.24 | V 2.45 | W 2.22 | Y 1.53
L24: A 1.85 | C 1.62 | D 1.6 | E 1.49 | F 1.99 | G 2.63 | H 2.65 | I 1.63 | K 2.91 | M 1.63 | N 2.1 | P 2.7 | Q 1.17 | R 2.34 | S 2.41 | T 1.61 | V 2.33 | W 1.62 | Y 2.12

Variants of: B2
Assay: as above
Settings: c terminus: a fixed tail appended

Protein stability index: each site, then its substitutions
G6: H 2.78 | Y 3.29 | F 2.27 | T 2.06 | D 3.1 | E 3.33 | I 2.69 | A 2.43 | C 4.32
L3: T 1.32 | K 2.17 | N 2.92 | R 2.62 | E 2.54
L14: V 3.61 | H 3.01 | F 2.16 | E 2.46 | D 2.03
G22: F 3.4 | K 2.08 | E 3.84 | S 2.04 | V 3.25 | T 4.65 | Q 3.23 | H 2.75
V9: H 2.07 | Y 2.23 | N 1.9 | F 3.79 | K 1.27 | D 3.2 | T 2.25 | S 3.94
S13: L 2 | D 2.82 | I 3.33 | R 1.87 | N 1.87 | F 3.31
I24: R 4.47 | L 2.31 | S 4.47 | V 2.79 | K 2.5 | H 4.96 | W 3.02 | F 2.09
R23: Y 1.35 | A 1.68 | F 1.85 | M 2.33 | L 2.88 | I 1.07 | K 3.91 | Q 2.57 | T 2.41 | C 3.83 | E 3.06
L12: I 1.58 | T 2.44 | Q 3.11 | V 3.35 | W 3.73 | E 3.91 | P 2.04 | Y 3.84 | N 2.87 | S 1.92
L8: P 2.7 | D 4.51 | I 3 | H 2.87
L5: Y 3.19 | R 2.84 | M 3.94 | W 2.12 | Q 2.45 | G 3.97 | E 2.46 | H 2.6 | I 3.48
G4: C 2.73 | Y 4.5 | D 3.12 | L 4.03 | F 3.56
S7: R 1.8 | A 3.86 | H 1.81 | K 2.01 | P 2.76 | I 2.45 | T 2.51 | N 2.72
C1: W 1.27 | N 2.15 | I 1.83 | L 2.46 | K 1.68 | R 2.88 | M 2.46
V18: H 2.43 | F 1.87 | L 2.48 | T 2.93 | K 2.98 | S 3.07 | M 4.12
V21: I 3.74 | C 3.06 | E 1.97 | L 2.77 | F 4.2 | P 3.7 | Y 3.38
L2: C 2.93 | H 3.48 | Q 1.55 | K 1.76 | M 2.96
T17: E 3.32 | Y 2.3 | F 3.38 | N 2.91
L10: K 2.9 | T 3.09 | N 2.3 | W 3.03 | C 3.02 | S 2.96
I20: L 3.62 | P 2.85 | N 3.97 | Q 3.17 | M 2.69
L19: R 4.06 | V 3.24 | N 2.96 | W 1.77 | H 3.95 | P 3.35
I11: Y 1.36 | E 4.57 | D 3.63 | W 1.42
S15: I 3.21 | Q 1.91 | C 4.02 | H 3.25 | W 1.8 | D 2.87 | N 3.57
Y16: W 1.91 | P 3.53 | M 3.02

Variants of: B3
Assay: as above
Settings: c terminus: a fixed tail appended

Protein stability index, by site and new letter:
F1: A 2.3 | C 1.97 | D 3.37 | E 2.81 | G 2.04 | I 2.52 | K 2.55 | L 2.37 | M 2.83 | N 2.61 | P 2.33 | Q 3.2 | R 3.23 | S 1.84 | V 2.7 | W 1.95 | Y 1.82
M2: A 2.47 | C 1.97 | D 3.16 | E 2.83 | H 1.74 | K 2.38 | L 1.46 | N 1.61 | Q 2.71 | R 2.45 | S 1.46 | W 2.09 | Y 1.79
P3: A 2.35 | C 2.02 | F 1.73 | I 2.58 | K 2.58 | L 2.22 | M 4 | N 2.39 | Q 1.28 | V 2.33
A4: C 1.47 | D 3.44 | E 2.34 | G 2.34 | H 2.68 | K 1.87 | L 2.09 | M 1.86 | N 1.56 | P 2.29 | Q 1.97 | R 2.66 | T 1.76
M5: A 2.15 | C 2.11 | D 1.48 | E 2.81 | F 2.25 | G 3.64 | H 2.71 | K 1.95 | L 2.25 | N 1.9 | P 2.6 | Q 2.24 | S 2.24 | T 1.68 | V 2.23 | Y 1.77
Q6: A 2.33 | D 1.92 | E 1.83 | F 1.4 | G 1.83
